± gives the uncertainty stated by the source.

The series is described as follows: self-splicing fitness, log relative to wild type (ln ratio); higher = more splicing; Tetrahymena group I intron in knt gene, E. coli kanamycin selection, DiMSum; sequences stand for … in CUCUCU…GGAGGGAAAAGUUAUCAGGCAUGCACCUGGUAGCUAGUCUUUAAACCAAUAGAUUGCAUCGGUUUAAAAGGCAAGACCGUCAAAUUGCGGGAAAGGGGUCAACAGCCGUUCAGUACCAAGUCUCAGGGGAAACUUUGAGAUGGCCUUGCAAAGGGUAUGGUAAUAAGCUGACGGACAUGGUCCUAACCACGCAGCCAAGUCCUAAGUCAACAGAUCUUCUGUUGAUAUGGAUGCAGUUCACAGACUAAAUGUCGGUCGGGGAAGAUGUAUUCUUCUCAUAAGAUAUAGUCGGACCUCUCCUUAAUGGGAGCUAGCGGAUGAAGUGAUGCAACACUGGAGCCGCUGGGAACUAAUUUGUAUGCGAAAGUAUAUUGAUUAGUUUUGGAGUACUCGUGGUCG
Put shortly: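 DiMSum derived fitness as the error-weighted combination of fold changes across replicates, kanamycin versus no kanamycin, normalised to wild type. E. coli BL21(DE3) held the library, which randomised all eight P1ex-region intron nucleotides within the knt kanamycin-resistance gene on pET-22b(+). Six replicate transformations grew overnight at 37°C or 30°C on LB agar with or without 25 μg/mL kanamycin, also containing 100 μg/mL carbenicillin, 50 μM IPTG and 0.2% rhamnose, and pooled colonies were amplicon-sequenced on an Illumina HiSeq 2500.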

With GAGGAGCAAUAUUACGAUCA, the “self-splicing fitness (ln)” value is, setting by setting: (30 °C) -2.5 ± 0.22; (37 °C) -1.59 ± 0.19.
With GAGGAGCAAUAUUACGCACA, the “self-splicing fitness (ln)” value is, setting by setting: (30 °C) -1.61 ± 0.32; (37 °C) -0.287 ± 0.23.
Taken in the same sequence, the figures for GAGGAGCAAUAUUACGCGUG were -1.55 ± 0.19 and -0.66 ± 0.23.
On to GAGGAGCAAUAUUACGCUAA, for which the “self-splicing fitness (ln)” value (30 °C) was -1.86 ± 0.32.
Turning to GAGGAGCAAUAUUACGCUAU, the “self-splicing fitness (ln)” value reads like this: (30 °C) -2.8 ± 0.27; (37 °C) -2.05 ± 0.45.
In the case of GAGGAGCAAUAUUACGCUGC, the “self-splicing fitness (ln)” value (30 °C) is -4.13 ± 0.38.
With GAGGAGCAAUAUUACGGAAC, the “self-splicing fitness (ln)” value is -3.68 ± 0.44 (30 °C) and -0.46 ± 0.28 (37 °C).
Taken in the same sequence, the figures for GAGGAGCAAUAUUACGGCAA were -2.41 ± 0.21 and -0.766 ± 0.26.
Taken in the same sequence, the figures for GAGGAGCAAUAUUACGGGCA were -1.33 ± 0.32 and -3.44 ± 0.47.
Consider GAGGAGCAAUAUUACGGGUA, for which the “self-splicing fitness (ln)” value (37 °C) was -2.26 ± 0.36.
For the sequence GAGGAGCAAUAUUACGGGUU, the “self-splicing fitness (ln)” value is, setting by setting: (30 °C) -1.74 ± 0.14; (37 °C) -2.23 ± 0.22.
For GAGGAGCAAUAUUACGGUUA, the “self-splicing fitness (ln)” value (30 °C) is -2.45 ± 0.28 and the “self-splicing fitness (ln)” value (37 °C) was -2.2 ± 0.3.
Taken in the same sequence, the figures for GAGGAGCAAUAUUACGUAGC were -0.914 ± 0.2 and -1.02 ± 0.37.
Consider GAGGAGCAAUAUUACGUCAG, for which the “self-splicing fitness (ln)” value (30 °C) is -3.5 ± 0.37.
As to GAGGAGCAAUAUUACGUGGG, the “self-splicing fitness (ln)” value is, setting by setting: (30 °C) -3.08 ± 0.36; (37 °C) -1.91 ± 0.4.
Taken in the same sequence, the figures for GAGGAGCAAUAUUACGUUAU were -3.32 ± 0.23 and -2.96 ± 0.32.
For GAGGAGCAAUAUUACGUUUC, the “self-splicing fitness (ln)” value (30 °C) was -2.74 ± 0.42.
Turning to GAGGAGCAAUAUUACGUUUG, the “self-splicing fitness (ln)” value is -3.33 ± 0.16 (30 °C) and -1.92 ± 0.13 (37 °C).
Taken in the same sequence, the figures for GAGUAGCAAUAUUACGAAUA were -2 ± 0.14 and -1.76 ± 0.14.
For the sequence GAGUAGCAAUAUUACGAGCU, the “self-splicing fitness (ln)” value reads like this: (30 °C) -1.64 ± 0.073; (37 °C) -0.0858 ± 0.11.
On to GAGUAGCAAUAUUACGAGGG, for which the “self-splicing fitness (ln)” value is -3.5 ± 0.44 (30 °C) and -1.94 ± 0.28 (37 °C).
GAGUAGCAAUAUUACGAGUC: the “self-splicing fitness (ln)” value is, setting by setting: (30 °C) -3.59 ± 0.34; (37 °C) -1.48 ± 0.27.
As for GAGUAGCAAUAUUACGCACG, the “self-splicing fitness (ln)” value (30 °C) was -1.77 ± 0.21.
GAGUAGCAAUAUUACGCACU: the “self-splicing fitness (ln)” value by setting is: (30 °C) -3.18 ± 0.19; (37 °C) -1.34 ± 0.36.
Taken in the same sequence, the figures for GAGUAGCAAUAUUACGCAGU were -3.14 ± 0.39 and -2.03 ± 0.22.
In the case of GAGUAGCAAUAUUACGCCCG, the “self-splicing fitness (ln)” value runs as follows: (30 °C) -0.892 ± 0.21; (37 °C) -1.03 ± 0.31.
GAGUAGCAAUAUUACGCCUC: the “self-splicing fitness (ln)” value (30 °C) is -2.22 ± 0.24 and the “self-splicing fitness (ln)” value (37 °C) was -3.01 ± 0.47.
Taken in the same sequence, the figures for GAGUAGCAAUAUUACGCGGU were -3.68 ± 0.31 and -2.78 ± 0.48.
Taken in the same sequence, the figures for GAGUAGCAAUAUUACGGAUU were -1.41 ± 0.073 and -0.46 ± 0.095.
With GAGUAGCAAUAUUACGGCGU, the “self-splicing fitness (ln)” value (30 °C) was -0.448 ± 0.17 and the “self-splicing fitness (ln)” value (37 °C) is 0.221 ± 0.18.
GAGUAGCAAUAUUACGUAAG: the “self-splicing fitness (ln)” value (30 °C) was -2.82 ± 0.14 and the “self-splicing fitness (ln)” value (37 °C) worked out at 0.0773 ± 0.14.
Taken in the same sequence, the figures for GAGUAGCAAUAUUACGUAGU were -4.34 ± 0.31 and -2.68 ± 0.2.
For GAGUAGCAAUAUUACGUAUA, the “self-splicing fitness (ln)” value is, setting by setting: (30 °C) -2.4 ± 0.29; (37 °C) -1.52 ± 0.22.
Taken in the same sequence, the figures for GAGUAGCAAUAUUACGUAUC were -3.05 ± 0.14 and -0.698 ± 0.11.
On to GAGUAGCAAUAUUACGUCAC, for which, for the setting “30 °C”, the “self-splicing fitness (ln)” value is -3.28 ± 0.24.
For GAGUAGCAAUAUUACGUCGC, the “self-splicing fitness (ln)” value is -1.31 ± 0.22 (30 °C) and -1.42 ± 0.26 (37 °C).
Take GAGUAGCAAUAUUACGUUAC: the “self-splicing fitness (ln)” value is, setting by setting: (30 °C) -4.57 ± 0.33; (37 °C) -1.57 ± 0.17.
For the sequence GAGUAGCAAUAUUACGUUGG, the “self-splicing fitness (ln)” value reads like this: (30 °C) -3.06 ± 0.25; (37 °C) -3.3 ± 0.46.
On to GAUAAGCAAUAUUACGACAG, for which the “self-splicing fitness (ln)” value (30 °C) was -3.46 ± 0.24 and the “self-splicing fitness (ln)” value (37 °C) is -1.89 ± 0.23.
Taken in the same sequence, the figures for GAUAAGCAAUAUUACGACGA were -0.165 ± 0.12 and -0.626 ± 0.11.
Turning to GAUAAGCAAUAUUACGAGGC, under “37 °C”, the “self-splicing fitness (ln)” value is -2.76 ± 0.44.
Turning to GAUAAGCAAUAUUACGAGUC, the “self-splicing fitness (ln)” value reads like this: (30 °C) -3.11 ± 0.27; (37 °C) -1.32 ± 0.17.
Taken in the same sequence, the figures for GAUAAGCAAUAUUACGAGUU were -2.26 ± 0.14 and -1.27 ± 0.16.
Taken in the same sequence, the figures for GAUAAGCAAUAUUACGAUGA were -0.666 ± 0.097 and -0.376 ± 0.11.
Taken in the same sequence, the figures for GAUAAGCAAUAUUACGCAAG were -2.51 ± 0.25 and -1.34 ± 0.21.
Regarding GAUAAGCAAUAUUACGCUAC, the “self-splicing fitness (ln)” value by setting is: (30 °C) -2.85 ± 0.4; (37 °C) -2.31 ± 0.34.
Taken in the same sequence, the figures for GAUAAGCAAUAUUACGGAUG were -2.76 ± 0.11 and -1 ± 0.11.
As for GAUAAGCAAUAUUACGGGAG, the “self-splicing fitness (ln)” value (30 °C) was -4.18 ± 0.25 and the “self-splicing fitness (ln)” value (37 °C) was -2.34 ± 0.15.
GAUAAGCAAUAUUACGGGCG: the “self-splicing fitness (ln)” value is, setting by setting: (30 °C) -1.41 ± 0.11; (37 °C) -0.837 ± 0.13.
Taken in the same sequence, the figures for GAUAAGCAAUAUUACGGUAA were -2.64 ± 0.22 and -1.46 ± 0.15.
With GAUAAGCAAUAUUACGGUCG, the “self-splicing fitness (ln)” value (30 °C) was -0.842 ± 0.1 and the “self-splicing fitness (ln)” value (37 °C) is 0.117 ± 0.13.
Taken in the same sequence, the figures for GAUAAGCAAUAUUACGUAUC were -3.9 ± 0.18 and -2.67 ± 0.27.
Regarding GAUAAGCAAUAUUACGUCCG, the “self-splicing fitness (ln)” value runs as follows: (30 °C) -4.76 ± 0.36; (37 °C) -2.1 ± 0.22.
Taken in the same sequence, the figures for GAUAAGCAAUAUUACGUGCU were -2.32 ± 0.18 and -1.71 ± 0.19.
For the sequence GAUAAGCAAUAUUACGUUAC, the “self-splicing fitness (ln)” value runs as follows: (30 °C) -2.69 ± 0.2; (37 °C) -2.09 ± 0.35.
Taken in the same sequence, the figures for GAUCAGCAAUAUUACGAACU were -0.585 ± 0.056 and 0.06 ± 0.073.
Taken in the same sequence, the figures for GAUCAGCAAUAUUACGAAUG were -1.15 ± 0.075 and -0.0569 ± 0.11.
For GAUCAGCAAUAUUACGACAU, the “self-splicing fitness (ln)” value runs as follows: (30 °C) -0.0993 ± 0.012; (37 °C) 0.102 ± 0.032.
With GAUCAGCAAUAUUACGACCU, the “self-splicing fitness (ln)” value reads like this: (30 °C) -0.708 ± 0.089; (37 °C) -0.346 ± 0.1.
Taken in the same sequence, the figures for GAUCAGCAAUAUUACGAGGG were -1.99 ± 0.11 and -2.17 ± 0.18.
For GAUCAGCAAUAUUACGAGUG, the “self-splicing fitness (ln)” value is -1.2 ± 0.06 (30 °C) and -1.21 ± 0.079 (37 °C).
Taken in the same sequence, the figures for GAUCAGCAAUAUUACGAUGU were -0.363 ± 0.062 and 0.0452 ± 0.077.
Taken in the same sequence, the figures for GAUCAGCAAUAUUACGCAGA were -2.13 ± 0.14 and -0.891 ± 0.16.
Taken in the same sequence, the figures for GAUCAGCAAUAUUACGCAGU were -1.74 ± 0.083 and -0.88 ± 0.12.
For GAUCAGCAAUAUUACGCCAG, the “self-splicing fitness (ln)” value is -3.32 ± 0.3 (30 °C) and -1.93 ± 0.31 (37 °C).
As to GAUCAGCAAUAUUACGCCCA, the “self-splicing fitness (ln)” value runs as follows: (30 °C) -0.563 ± 0.2; (37 °C) -0.558 ± 0.28.
Taken in the same sequence, the figures for GAUCAGCAAUAUUACGCCGC were -2.29 ± 0.44 and -1.19 ± 0.28.
Take GAUCAGCAAUAUUACGCGCG: the “self-splicing fitness (ln)” value runs as follows: (30 °C) -0.222 ± 0.14; (37 °C) 0.0103 ± 0.15.
Taken in the same sequence, the figures for GAUCAGCAAUAUUACGCUGG were -3.48 ± 0.21 and -3.18 ± 0.27.
Taken in the same sequence, the figures for GAUCAGCAAUAUUACGGAAG were -2.38 ± 0.1 and -0.761 ± 0.091.
Taken in the same sequence, the figures for GAUCAGCAAUAUUACGGGUA were -0.0547 ± 0.089 and -0.665 ± 0.086.
In the case of GAUCAGCAAUAUUACGGUAA, the “self-splicing fitness (ln)” value is -0.559 ± 0.075 (30 °C) and 0.194 ± 0.07 (37 °C).
Taken in the same sequence, the figures for GAUCAGCAAUAUUACGGUAU were -0.247 ± 0.068 and -0.46 ± 0.078.
In the case of GAUCAGCAAUAUUACGGUUC, the “self-splicing fitness (ln)” value (30 °C) is -2.83 ± 0.23 and the “self-splicing fitness (ln)” value (37 °C) was -0.31 ± 0.14.
Taken in the same sequence, the figures for GAUCAGCAAUAUUACGGUUU were -0.544 ± 0.074 and -0.154 ± 0.098.
For GAUCAGCAAUAUUACGUACA, the “self-splicing fitness (ln)” value was -0.607 ± 0.12 (30 °C) and 0.177 ± 0.15 (37 °C).
Taken in the same sequence, the figures for GAUCAGCAAUAUUACGUAGA were -0.569 ± 0.08 and -0.158 ± 0.14.

Values taken from the supplement of paper PMC7877785.
